Here are results for 5 molecules from patent US20140120095A1 (Boehringer Ingelheim, published 2014).

In test [1] the target is T1, recombinant human DLL4 (C-terminally His-tagged extracellular domain, R&D Systems) (human, UniProt Q9NR61 25-522, biotinylated in the competition ELISA).
T1 construct: also called rhDLL4; hDLL4
The test can be described thus: SPR (Biacore), recombinant human DLL4. The procedure: Kinetic analysis to determine the affinity of the DII4-VHH interaction is performed by Surface Plasmon Resonance (SPR) on a Biacore T100 instrument. […] Purified VHHs or Fab fragment are injected for 2 minutes at different concentrations (between 10 and 300 nM) and allowed to dissociate for 20 min at a flow rate of 45 μl/min. Between sample injections, the surfaces are regenerated with 10 mM glycine pH1.5 and 100 mM HCl. HBS-N (Hepes buffer pH7.4) is used as running buffer. If possible, data are evaluated by fitting a 1:1 interaction model (Langmuir binding) onto the binding curves. The affinity constant KD is calculated from resulting association and dissociation rate constants (kₐ) and […].
On the technique in general: In SPR one partner is held on a chip, and binding of the other changes the refractive index at the surface.

For test [2], the target named is T2, human DLL4 expressed on cells (CHO-hDLL4; HEK293-hDLL4) (human, UniProt Q9NR61 27-685).
T2 construct: full length human DLL4 overexpressed on CHO cells (FMAT, FACS) or HEK293 cells (reporter assay)
The test can be described thus: competition FMAT, labelled hNotch1-Fc on CHO-hDLL4 cells.

Test [3] deals with T2, human DLL4 expressed on cells …. Nature of the test: cell-based or functional assay.
The target of test [4] is T1, recombinant human DLL4 (C-terminally …). The test can be described thus: competition ELISA hDLL4/hNotch1-Fc; summary table. A general note: An ELISA detects its analyte on a solid surface through an enzyme-linked reagent.
Test [5] shares this target. Nature of the test: competition ELISA, biotinylated hDLL4 to coated hNotch1-Fc.

B1: DLLBII019 (VHH, not shown: small tags and cut ends)
VHH: EVQLVESGGGLVQPGGSLRLSCAASGFTFGSYDMSWVRRSPGKGPEWVSSINSGGGSTYYADYVKGRFTISRDNAKNTLYLQMNSLRPEDTAVYYCAADRYIWARQGEYWGAYEYDYWGQGTLVTVSS
As usually defined, the Kd is a measure of binding affinity in units of concentration. As usually defined, the koff is the rate constant with which the complex falls apart. What is called kon is the second-order rate constant of association. What is called IC50 is the concentration at which inhibition is half-maximal. As for B1, in test [1], the Kd amounted to 1.3 nM, the koff was found to be 0.00074 s⁻¹ and the kon is 570000 M⁻¹ s⁻¹. The IC50 in test [2] turned out to be 3 nM.

B2: DLLBII020 (VHH, not shown: small tags and cut ends)
VHH: EVQLVESGGGLVQPGGSLRLSCAASGFTFGSYDMSWVRQSPGKGPEWVSSINSGGGSTYYADYVKGRFTISRDNAKNTLYLQMNSLRPEDTAVYYCAADRYIWARQGEYWGAYEYDYWGQGTLVTVSS
As to B2, in test [1], the Kd came out at 27 nM, the koff worked out at 0.0093 s⁻¹ and the kon is 340000 M⁻¹ s⁻¹. For the same molecule, the IC50 in test [2] is 44.6 nM.

B3: DLLBII022 (VHH, not shown: small tags and cut ends)
VHH: EVQLVESGGGLVQPGGSLRLSCAASGFTFGSYDMSWVRQAPGKGPEWVSSINSGGGSTYYADYVKGRFTISRDNAKNTLYLQMNSLRPEDTAVYYCAADRYIWARQGEYWGAYEYDYWGQGTLVTVSS
For B3, in test [1], the Kd turned out to be 46 nM, the koff came to 0.022 s⁻¹ and the kon stood at 470000 M⁻¹ s⁻¹. The same molecule yielded an IC50 in test [2] of 95.4 nM.

B4: DLLBII134D10 (VHH, not shown: small tags and cut ends)
VHH: EVQLVESGGGLVQPGGSLRLSCAASGFTIGSYDMSWVRRSPGKGPEWVSSINSGGGSTYYTDYVKGRFTISRDNAKNTLYLQMNSLKPEDTAVYYCAADRYIWARQGEYWGAYAYDYWGQGTQVTVSS
Take B4: the “IC50, DLL4-mediated reporter assay” value in test [3] is 18 nM. Besides, the IC50 in test [4] and in test [5] was 1.3 nM in each case.

B5: DLLBII021 (VHH, not shown: small tags and cut ends)
VHH: EVQLVESGGGLVQPGGSLRLSCAASGFTFGSYDMSWVRRAPGKGPEWVSSINSGGGSTYYADYVKGRFTISRDNAKNTLYLQMNSLRPEDTAVYYCAADRYIWARQGEYWGAYEYDYWGQGTLVTVSS
As to B5, in test [1], the Kd stood at 1 nM, the koff worked out at 0.00057 s⁻¹ and the kon worked out at 560000 M⁻¹ s⁻¹. For the same molecule, the IC50 in test [2] turned out to be 2.1 nM.
